Source: patent US11505811B2, “Method for the preparation of 2,4-dihydroxybutyrate” (ADISSEO FRANCE S.A.S., priority 2012, dated 2022)

Assays:
Type in all cases: biochemical
[1] = oxaloacetate reductase activity, NADH absorption at 340 nm; conditions: for Max. specific activity, OAA: measured at 0.5 mM oxaloacetate
Description: (§1) Enzymatic assays: The reaction mixture contained 60 mM Hepes (pH 7), 50 mM potassium chloride, 5 mM MgCl2, 0.25 mM NADH, (optionally 5 mM fructose-1,6-bisphosphate) (all products from Sigma), and appropriate amounts of purified malate or lactate dehydrogenase or cell extract. Reactions were started by adding appropriate amounts of 2-oxo-4-hydroxybutyrate (OHB), pyruvate, or oxaloacetate (OAA). Enzymatic assays were carried out at 37° C. in 96-well flat bottomed microtiter plates in a final volume of 250 μL. The reactions were followed by the characteristic absorption of NADH at 340 nm (εNADH=6.22 mM^−1 cm^−1) in a microplate reader (BioRad 680XR).

[2] = OHB reductase activity, NADH absorption at 340 nm
Description: as §1
OHB was synthesized by incubating 125 mM homoserine with snake venom (L)-amino acid oxidase (1.25 U/mL, Sigma) and catalase (4400 U/mL, Sigma) in 100 mM Tris buffer at pH 7.8 for 90 min at 37° C. Subsequently, the reaction mixture was purified on an Amicon™ Ultra centrifugal filter with a cut-off of 10 kDa to eliminate the enzymes (method adapted from Wellner & Lichtenberg, 1971).
OHB was quantified by mixing 100 μL of the tested solution with 1 mL of a solution containing 1 M sodium arsenate and 1 M boric acid at pH 6.5. The mixture was incubated at room temperature for 30 min and the absorbance at 325 nm was used to quantify OHB. The relation between absorbance and concentration of the ketone was calibrated using pyruvate solutions of known concentrations (method adapted from (Wellner & Lichtenberg, 1971)). The typical OHB yield of the method was 90%.

[3] = pyruvate reductase activity, NADH absorption at 340 nm; conditions: natural substrate of Ldh: pyruvate; purified enzyme, 37° C., pH 7
Description: as §1

[4] = E. coli Mdh mutants, measured at 20 mM OHB
[5] = when not saturated, activity estimated at 20 mM substrate

| Molecule | Max. specific activity, OAA ([1]; E. coli Mdh mutants) [µmol/mg/min] | Max. specific activity, OHB [2, 4] [µmol/mg/min] | other results |
| --- | --- | --- | --- |
| Ec-Mdh: (L)-malate dehydrogenase from Escherichia coli, SEQ ID NO: 2 (protein, listed as Escherichia coli) MKVAVLGAAGGIGQALALLLKTQLPSGSELSLYDIAPVTPGVAVDLSHIPTAVKIKGFSGEDATPALEGADVVLISAGVARKPGMDRSDLFNVNAGIVKNLVQQVAKTCPKACIGIITNPVNTTVAIAAEVLKKAGVYDKNKLFGVTTLDIIRSNTFVAELKGKQPGEVEVPVIGGHSGVTILPLLSQVPGVSFTEQEVADLTKRIQNAGTEVVEAKAGGGSATLSMGQAAARFGLSLVRALQGEQGVVECAYVEGDGQYARFFSQPLLLGKNGVEERKSIGTLSAFEQNALEGMLDTLKKDIALGEEFVNK | 95 | 0.01 | Max. specific activity, natural substrate ([1]; natural substrate of Mdh: oxaloacetate, purified enzyme, 37° C., pH 7): 95.6 µmol/mg/min; OHB reductase activity, in words [2]: very minor activity; Max. specific activity, OHB [2, 5]: 0.01 µmol/mg/min |
| R81A M85E I12V: E. coli malate dehydrogenase mutant, SEQ ID No. 110 (protein, listed as Escherichia coli) MKVAVLGAAGGVGQALALLLKTQLPSGSELSLYDIAPVTPGVAVDLSHIPTAVKIKGFSGEDATPALEGADVVLISAGVAAKPGEDRSDLFNVNAGIVKNLVQQVAKTCPKACIGIITNPVNTTVAIAAEVLKKAGVYDKNKLFGVTTLDIIRSNTFVAELKGKQPGEVEVPVIGGHSGVTILPLLSQVPGVSFTEQEVADLTKRIQNAGTEVVEAKAGGGSATLSMGQAAARFGLSLVRALQGEQGVVECAYVEGDGQYARFFSQPLLLGKNGVEERKSIGTLSAFEQNALEGMLDTLKKDIALGEEFVNK | 2.2 | 12.54 |  |
| R81A 112V: E. coli malate dehydrogenase mutant, SEQ ID No. 115 as printed (protein, listed as Escherichia coli) MKVAVLGAAGGVGQALALLLKTQLPSGSELSLYDIAPVTPGVAVDLSHIPTAVKIKGFSGEDATPALEGADVVLISAGVAAKPGMDRSDLFNVNAGIVKNLVQQVAKTCPKACIGIITNPVNTTVAIAAEVLKKAGVYDKNKLFGVTTLDIIRSNTFVAELKGKQPGEVEVPVIGGHSGVTILPLLSQVPGVSFTEQEVADLTKRIQNAGTEVVEAKAGGGSATLSMGQAAARFGLSLVRALQGEQGVVECAYVEGDGQYARFFSQPLLLGKNGVEERKSIGTLSAFEQNALEGMLDTLKKDIALGEEFVNK | 0.5 | 4.9 |  |
| R81A D86S: E. coli malate dehydrogenase mutant, SEQ ID No. 1114 as printed (protein, UniProt P61889 1-312, looked up, variant R81A D86S) Malate dehydrogenase: MKVAVLGAAGGIGQALALLLKTQLPSGSELSLYDIAPVTPGVAVDLSHIPTAVKIKGFSGEDATPALEGADVVLISAGVAAKPGMSRSDLFNVNAGIVKNLVQQVAKTCPKACIGIITNPVNTTVAIAAEVLKKAGVYDKNKLFGVTTLDIIRSNTFVAELKGKQPGEVEVPVIGGHSGVTILPLLSQVPGVSFTEQEVADLTKRIQNAGTEVVEAKAGGGSATLSMGQAAARFGLSLVRALQGEQGVVECAYVEGDGQYARFFSQPLLLGKNGVEERKSIGTLSAFEQNALEGMLDTLKKDIALGEEFVNK | 0.67 | 14.6 |  |
| R81A G179D: E. coli malate dehydrogenase mutant, SEQ ID No. 112 (protein, listed as Escherichia coli) MKVAVLGAAGGIGQALALLLKTQLPSGSELSLYDIAPVTPGVAVDLSHIPTAVKIKGFSGEDATPALEGADVVLISAGVAAKPGMDRSDLFNVNAGIVKNLVQQVAKTCPKACIGIITNPVNTTVAIAAEVLKKAGVYDKNKLFGVTTLDIIRSNTFVAELKGKQPGEVEVPVIGGHSDVTILPLLSQVPGVSFTEQEVADLTKRIQNAGTEVVEAKAGGGSATLSMGQAAARFGLSLVRALQGEQGVVECAYVEGDGQYARFFSQPLLLGKNGVEERKSIGTLSAFEQNALEGMLDTLKKDIALGEEFVNK | 0.37 | 4.16 |  |
| R81A G179D D86S: E. coli malate dehydrogenase mutant, SEQ ID No. 118 (protein, listed as Escherichia coli) MKVAVLGAAGGIGQALALLLKTQLPSGSELSLYDIAPVTPGVAVDLSHIPTAVKIKGFSGEDATPALEGADVVLISAGVAAKPGMSRSDLFNVNAGIVKNLVQQVAKTCPKACIGIITNPVNTTVAIAAEVLKKAGVYDKNKLFGVTTLDIIRSNTFVAELKGKQPGEVEVPVIGGHSDVTILPLLSQVPGVSFTEQEVADLTKRIQNAGTEVVEAKAGGGSATLSMGQAAARFGLSLVRALQGEQGVVECAYVEGDGQYARFFSQPLLLGKNGVEERKSIGTLSAFEQNALEGMLDTLKKDIALGEEFVNK | 0.54 | 19 | Km, OAA ([1]; E. coli Mdh mutants, ns = not saturated up to 0.5 mM oxaloacetate): ns; Km, OHB ([2]; E. coli Mdh mutants, ns = not saturated up to 50 mM OHB): ns |
| R81A M85Q I12V: E. coli malate dehydrogenase mutant, SEQ ID No. 108 (protein, listed as Escherichia coli) MKVAVLGAAGGVGQALALLLKTQLPSGSELSLYDIAPVTPGVAVDLSHIPTAVKIKGFSGEDATPALEGADVVLISAGVAAKPGQDRSDLFNVNAGIVKNLVQQVAKTCPKACIGIITNPVNTTVAIAAEVLKKAGVYDKNKLFGVTTLDIIRSNTFVAELKGKQPGEVEVPVIGGHSGVTILPLLSQVPGVSFTEQEVADLTKRIQNAGTEVVEAKAGGGSATLSMGQAAARFGLSLVRALQGEQGVVECAYVEGDGQYARFFSQPLLLGKNGVEERKSIGTLSAFEQNALEGMLDTLKKDIALGEEFVNK | 1.84 | 18.9 |  |
| R81A M85Q: E. coli malate dehydrogenase mutant, SEQ ID No. 104 (protein, listed as Escherichia coli) MKVAVLGAAGGIGQALALLLKTQLPSGSELSLYDIAPVTPGVAVDLSHIPTAVKIKGFSGEDATPALEGADVVLISAGVAAKPGQDRSDLFNVNAGIVKNLVQQVAKTCPKACIGIITNPVNTTVAIAAEVLKKAGVYDKNKLFGVTTLDIIRSNTFVAELKGKQPGEVEVPVIGGHSGVTILPLLSQVPGVSFTEQEVADLTKRIQNAGTEVVEAKAGGGSATLSMGQAAARFGLSLVRALQGEQGVVECAYVEGDGQYARFFSQPLLLGKNGVEERKSIGTLSAFEQNALEGMLDTLKKDIALGEEFVNK | 0.5 | 4.99 |  |
| R81A M85E: E. coli malate dehydrogenase mutant, SEQ ID No. 106 (protein, listed as Escherichia coli) MKVAVLGAAGGIGQALALLLKTQLPSGSELSLYDIAPVTPGVAVDLSHIPTAVKIKGFSGEDATPALEGADVVLISAGVAAKPGEDRSDLFNVNAGIVKNLVQQVAKTCPKACIGIITNPVNTTVAIAAEVLKKAGVYDKNKLFGVTTLDIIRSNTFVAELKGKQPGEVEVPVIGGHSGVTILPLLSQVPGVSFTEQEVADLTKRIQNAGTEVVEAKAGGGSATLSMGQAAARFGLSLVRALQGEQGVVECAYVEGDGQYARFFSQPLLLGKNGVEERKSIGTLSAFEQNALEGMLDTLKKDIALGEEFVNK | 1 | 3 |  |
| R81A: E. coli malate dehydrogenase mutant R81A, SEQ ID No. 102 (protein, listed as Escherichia coli) MDHRAMKVAVLGAAGGIGQALALLLKTQLPSGSELSLYDIAPVTPGVAVDLSHIPTAVKIKGFSGEDATPALEGADVVLISAGVAAKPGMDRSDLFNVNAGIVKNLVQQVAKTCPKACIGIITNPVNTTVAIAAEVLKKAGVYDKNKLFGVTTLDIIRSNTFVAELKGKQPGEVEVPVIGGHSGVTILPLLSQVPGVSFTEQEVADLTKRIQNAGTEVVEAKAGGGSATLSMGQAAARFGLSLVRALQGEQGVVECAYVEGDGQYARFFSQPLLLGKNGVEERKSIGTLSAFEQNALEGMLDTLKKDIALGEEFVNK | 1.16 | 1.8 |  |
| Ll-Ldh: (L)-lactate dehydrogenase of Lactococcus lactis, SEQ ID NO: 6 (protein, listed as Lactococcus lactis) MADKQRKKVILVGDGAVGSSYAFALVNQGIAQELGIVDLFKEKTQGDAEDLSHALAFTSPKKIYSADYSDASDADLVVLTSGAPQKPGETRLDLVEKNLRITKDVVTKIVASGFKGIFLVAANPVDILTYATWKFSGFPKNRVVGSGTSLDTARFRQALAEKVDVDARSIHAYIMGEHGDSEFAVWSHANVAGVKLEQWFQENDYLNEAEIVELFESVRDAAYSIIAKKGATFYGVAVALARITKAILDDEHAVLPVSVFQDGQYGVSDCYLGQPAVVGAEGVVNPIHIPLNDAEMQKMEASGAQLKAIIDEAFAKEEFASAVKN |  |  | Max. specific activity, OHB [2, 5]: 18 µmol/mg/min; Max. specific activity, natural substrate [3]: 184 µmol/mg/min |
